The target in experiment [1] is T1, murine proGDF11 (mouse, UniProt Q9Z1W4 25-405, biotinylated, site not stated).
T1 construct: also called mu proGDF11
T1 sequence: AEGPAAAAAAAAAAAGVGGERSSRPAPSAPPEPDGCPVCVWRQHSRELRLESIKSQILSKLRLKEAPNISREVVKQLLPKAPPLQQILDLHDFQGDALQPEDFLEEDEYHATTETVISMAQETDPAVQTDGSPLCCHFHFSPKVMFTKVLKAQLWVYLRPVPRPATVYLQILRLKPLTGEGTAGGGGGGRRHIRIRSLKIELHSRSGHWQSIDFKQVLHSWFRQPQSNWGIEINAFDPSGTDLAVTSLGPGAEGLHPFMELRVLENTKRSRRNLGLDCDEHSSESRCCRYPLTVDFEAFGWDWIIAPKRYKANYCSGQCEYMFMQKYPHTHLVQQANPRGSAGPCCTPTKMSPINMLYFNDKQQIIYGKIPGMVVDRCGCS
Kind of experiment: BLI (ForteBio Octet).

In another experiment the target is T2, human proGDF11 (human, UniProt O95390 25-407, biotinylated (NHS-PEG4-Biotin), site not stated).
T2 sequence: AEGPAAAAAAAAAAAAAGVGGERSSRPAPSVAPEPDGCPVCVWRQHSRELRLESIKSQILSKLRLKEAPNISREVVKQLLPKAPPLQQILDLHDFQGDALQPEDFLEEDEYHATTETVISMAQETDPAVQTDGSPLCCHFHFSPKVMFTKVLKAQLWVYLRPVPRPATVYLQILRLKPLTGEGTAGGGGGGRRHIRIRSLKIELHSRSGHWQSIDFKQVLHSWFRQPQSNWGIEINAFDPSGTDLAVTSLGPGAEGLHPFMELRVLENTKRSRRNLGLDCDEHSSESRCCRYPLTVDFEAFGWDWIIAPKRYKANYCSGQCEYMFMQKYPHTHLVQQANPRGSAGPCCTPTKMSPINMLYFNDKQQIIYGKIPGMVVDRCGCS
Kind of experiment: cell-based or functional assay.

Experiment [2] deals with T1, murine proGDF11. Kind of experiment: cell-based or functional assay.
The target in experiment [3] is T3, human prodomain GDF11 ARM8 (human, biotinylated, site not stated).
T3 construct: GDF11 prodomain having the GDF8 arm domain; also called human GDF11 ARM8 prodomain
T3 chain: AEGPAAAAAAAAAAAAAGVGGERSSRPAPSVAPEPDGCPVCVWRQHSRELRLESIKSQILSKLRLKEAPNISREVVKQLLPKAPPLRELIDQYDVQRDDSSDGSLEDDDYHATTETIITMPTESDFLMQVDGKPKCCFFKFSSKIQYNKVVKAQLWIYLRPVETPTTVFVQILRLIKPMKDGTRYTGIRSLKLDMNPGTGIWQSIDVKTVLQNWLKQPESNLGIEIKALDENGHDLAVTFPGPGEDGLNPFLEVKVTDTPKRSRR
Kind of experiment: ELISA, biotinylated antigen on neutravidin plate. An excerpt:
(§1) Candidate clones were converted to human IgG1 format. Full-length IgG antibodies were further characterized by ELISA for binding to the human and murine pro- and latent-forms of myostatin and GDF11. Antibodies were also screened for binding to the Myostatin prodomain (SEQ ID NO: 85), proTGFDβ1 (human and murine), the mature growth factor of Myostatin (SEQ ID NO: 89), the GDF11 mature growth factor (SEQ ID NO: 90), and proActivin A (SEQ ID NO: 84). Chimeric constructs which swapped portions of the prodomains of Myostatin and GDF11 were designed and produced. For example proGDF11 arm8 (SEQ ID NO: 112) refers to GDF11 having the GDF8 arm domain, and prodomain GDF11 arm8 (SEQ ID NO: 114) refers to the GDF11 prodomain having the GDF8 arm domain. These chimeric proteins were assayed for interaction with screening antibodies by ELISA and allowed for the assessment of binding of antibodies to the ARM or straight jacket portions of the GDF11 prodomain complex. Antibodies were selected based on their cross-reactivity with pro- and latent human and murine GDF11, with no interactions with GDF8, Activin, or TGFβ proteins. Activin A is a homodimer of inhibin-beta A subunits. For example, Inhibin-beta A can heterodimerize with other proteins to produce different Activin proteins.
(§2) Enzyme-linked immunosorbent assay (ELISA) analysis is carried out to assess antibody binding. 96-well ELISA assay plates are coated with neutravidin, a deglycosylated version of streptavidin with a more neutral pH. Target proteins are expressed with or without histidine (His) tags and subjected to biotinylation. Biotinylated target proteins are incubated with neutravidin-coated ELISA assay plates for two hours at room temperature and unbound proteins are removed by washing three times with wash buffer (either 25 mM Tris, 150 mM NaCl, 0.05% TWEEN®-20, or 20 mM Hepes pH 7.5, 500 mM NaCl, 0.05% TWEEN®-20). Primary antibodies being tested are added to each well and allowed to incubate at room temperature for 1 hour or more. Unbound antibody is then removed by washing three times with wash buffer. Secondary antibodies capable of binding to primary antibodies being tested and conjugated with detectable labels are then incubated in each well for 30 minutes at room temperature. Unbound secondary antibodies are removed by washing three times with wash buffer.

The target in another experiment is T4, human mature GDF11 (human, UniProt O95390 299-407, biotinylated, site not stated).
T4 construct: Growth factor domain; also called GDF11 mature growth factor
T4 sequence: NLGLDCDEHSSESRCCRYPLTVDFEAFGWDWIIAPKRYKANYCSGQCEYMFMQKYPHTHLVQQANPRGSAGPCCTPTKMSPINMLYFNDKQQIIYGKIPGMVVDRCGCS
In words: ELISA, biotinylated antigen on neutravidin plate.
Excerpt: as §1, §2
A general note: In an ELISA, binding on a coated surface is turned into a signal by an enzyme label.

B1: GDF11 Inh-2 (antibody, V domains shown)
VH: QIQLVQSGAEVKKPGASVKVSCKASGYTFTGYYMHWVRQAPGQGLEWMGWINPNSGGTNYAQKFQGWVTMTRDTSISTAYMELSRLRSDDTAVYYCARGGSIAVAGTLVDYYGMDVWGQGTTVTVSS
VL: DIQMTQSPSSLSASVGDRVTITCQASQDISNYLNWYQQKPGKAPKLLIYDASNLETGVPSRFSGSGSGTDFTLTISSLQPEDVATYYCQKYSTAPLTFGGGTKVEIKR
notes: also called Clone GDF11 Inh-2
Turning to B1, in the experiment with murine proGDF11 [1], the Kd stood at 1.73 nM. In the experiment with human proGDF11, the “Human proGDF11 % Inhibition (proGDF11 activation assay, CAGA luciferase reporter in 293T cells)” value stood at 100%. The “Murine proGDF11 % inhibition (proGDF11 activation assay, CAGA luciferase reporter in 293T cells)” value with murine proGDF11 [2] was found to be 95%. Further, the binding result (in experiment [3]; with human mature GDF11) was “no binding” in each case.

B2: GDF11 Inh-4 (antibody, V domains shown)
VH: QVQLVQSGAEVKKPGASVKVSCKASGYTFTSYGISWVRQAPGQGLEWMGWISAYNGNTNYAQKLQGRVTMTTDTSTSTAYMELRSLRSDDTAVYYCARTPPLWFGEYGAFDIWGQGAMVTVSS
VL: DIQMTQSPSSLSASVGDRVTITCQASQDISNYLNWYQQKPGKAPKLLIYDASNLETGVPSRFSGSGSGTDFTLTISSLQPDDFATYYCQQSYTTPITFGQGTRLEIKR
notes: also called Clone GDF11 Inh-4
Turning to B2, the “Human proGDF11 % Inhibition (proGDF11 activation assay, CAGA luciferase reporter in 293T cells)” value in the experiment with human proGDF11 came out at 94%. Also, the “Murine proGDF11 % inhibition (proGDF11 activation assay, CAGA luciferase reporter in 293T cells)” value with murine proGDF11 [2] stood at 87%. In addition, the binding result (in experiment [3]; with human mature GDF11) was “no binding” each time.

As a reminder, the Kd is the free concentration of one partner at which half of the binding sites on the other are occupied at equilibrium, for simple one-to-one binding. A high value points to a looser complex.

Values taken from patent US20180208648A1 (SCHOLAR ROCK, published 2018).
